Assays:
[1] = target: M3+TE (module 3 of DEBS with its own N-terminal linker, fused to thioesterase) (UniProt Q03132); experiment: estimated from the saturation curve of the rate of tetraketide formation against M3+TE concentration at fixed M2 (kinetic, in solution)
[2] = target: (5)M3+TE (module 3 of DEBS with the N-terminal linker of module 5, fused to thioesterase) (UniProt Q03132); experiment: estimated from the saturation curve of the rate of tetraketide formation against (5)M3+TE concentration at fixed 0.5 µM M2(4) (kinetic, in solution)
[3] = target: (5)M5+TE (module 5 of DEBS with its own N-terminal linker, fused to thioesterase) (UniProt Q03133); experiment: cell-based or functional assay
[4] = target: (3)M5+TE (module 5 of DEBS with the N-terminal linker of module 3, fused to thioesterase) (UniProt Q03133); experiment: cell-based or functional assay
[5] = target: (5)M6+TE (module 6 of DEBS with the N-terminal linker of module 5, with thioesterase) (UniProt Q03133); experiment: cell-based or functional assay
[6] = target: (5)M2+TE (module 2 of DEBS with the N-terminal linker of module 5, fused to thioesterase) (UniProt Q03131); experiment: cell-based or functional assay

With “M2 (module 2 of DEBS with its natural C-terminal linker) (from UniProt Q03131 1982-3404; Q03131 3408-3491) (enzyme)” the Kd [1] was 1.1 µM.
“M2(4) (module 2 of DEBS with the C-terminal linker of module 4) (from UniProt Q03131 1982-3404; Q03132 3489-3567) (enzyme)” showed a Kd [2] of 2.1 µM.
Work on “diketide-ACP2(4) (DEBS ACP2 with the C-terminal linker of module 4, loaded with diketide) (from UniProt Q03131 3320-3408; Q03132 3489-3567)” yielded a k60 µM, fold decrease against the matched reaction (FIG. 28 C) [3] of 20 fold.
In the case of “diketide-ACP4(4) (DEBS ACP4 with its natural C-terminal linker, loaded with diketide) (from UniProt Q03132 3398-3567)”, the maximal rate of elongation of 4a, fold increase against the NAC thioester 2a [3] is reported as > 40 fold and the k60 µM, fold decrease against the matched reaction (FIG. 28 B) [4] is reported as 20 fold.
“diketide-ACP4(Ø) (DEBS ACP4 without linker, loaded with diketide) (from UniProt Q03132 3398-3488)” was tested, and the k60 µM (FIG. 29 A) [3] was 0.49 min⁻¹, the k60 µM, fold decrease against diketide-ACP4(4) with the same module [5] was 10 fold and the k60 µM, fold decrease against diketide-ACP4(4) with the same module [6] was 10 fold. For the same substance, the k60 µM (FIG. 29 B) [4] was 0.27 min⁻¹.
“diketide-NovH(4) (NovH fused to the C-terminal linker of DEBS module 4, loaded with diketide) (from UniProt Q03132 3489-3567)” showed a k60 µM [5] of 0.53 min⁻¹.
